The target of this assay is T1, KDR/flk-1 VEGF receptor of HUVEC cells (human, UniProt P35968 20-1356).
T1 construct: whole, on cells; Endogenous receptor on confluent HUVEC cells
Kind of assay: overview table, row 'Binding to Flk-1 and Flt-1 receptors'.

T1 sequence (P35968 20-1356): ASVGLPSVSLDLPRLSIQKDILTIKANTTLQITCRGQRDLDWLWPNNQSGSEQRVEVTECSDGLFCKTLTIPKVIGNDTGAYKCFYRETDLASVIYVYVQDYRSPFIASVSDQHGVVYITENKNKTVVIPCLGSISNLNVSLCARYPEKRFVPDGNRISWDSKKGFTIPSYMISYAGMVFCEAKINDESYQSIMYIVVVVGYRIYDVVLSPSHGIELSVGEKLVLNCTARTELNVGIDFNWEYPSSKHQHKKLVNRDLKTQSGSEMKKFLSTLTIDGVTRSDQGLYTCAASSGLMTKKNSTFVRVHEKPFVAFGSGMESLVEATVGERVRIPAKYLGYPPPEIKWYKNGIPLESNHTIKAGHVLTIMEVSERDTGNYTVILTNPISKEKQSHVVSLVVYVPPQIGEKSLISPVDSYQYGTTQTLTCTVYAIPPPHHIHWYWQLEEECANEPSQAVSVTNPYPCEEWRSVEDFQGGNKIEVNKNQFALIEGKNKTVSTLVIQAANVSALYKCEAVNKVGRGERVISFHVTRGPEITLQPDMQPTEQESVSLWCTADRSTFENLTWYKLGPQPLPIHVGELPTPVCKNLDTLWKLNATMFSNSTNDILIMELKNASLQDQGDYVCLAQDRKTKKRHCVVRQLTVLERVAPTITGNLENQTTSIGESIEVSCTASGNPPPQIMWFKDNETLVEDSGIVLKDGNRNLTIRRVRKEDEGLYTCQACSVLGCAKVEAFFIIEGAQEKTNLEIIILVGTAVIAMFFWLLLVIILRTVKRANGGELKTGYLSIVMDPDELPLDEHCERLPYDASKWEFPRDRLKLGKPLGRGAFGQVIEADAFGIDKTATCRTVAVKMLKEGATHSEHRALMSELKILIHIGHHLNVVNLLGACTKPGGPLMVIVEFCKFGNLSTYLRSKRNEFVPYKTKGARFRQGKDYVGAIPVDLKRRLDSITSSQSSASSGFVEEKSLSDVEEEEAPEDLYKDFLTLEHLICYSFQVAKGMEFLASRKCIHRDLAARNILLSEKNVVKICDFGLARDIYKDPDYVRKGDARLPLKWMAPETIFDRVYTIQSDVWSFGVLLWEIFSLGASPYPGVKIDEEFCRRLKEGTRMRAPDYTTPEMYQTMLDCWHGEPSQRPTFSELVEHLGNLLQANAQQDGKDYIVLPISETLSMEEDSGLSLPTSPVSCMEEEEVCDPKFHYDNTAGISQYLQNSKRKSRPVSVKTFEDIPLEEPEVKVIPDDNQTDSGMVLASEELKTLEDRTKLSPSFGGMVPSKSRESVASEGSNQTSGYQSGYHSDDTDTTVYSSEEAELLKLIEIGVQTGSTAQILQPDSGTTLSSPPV

B1: VEGF145 (recombinant human vascular endothelial growth factor form of 145 amino acids, exons 1-5, 6a and 8) (ligand)
chain: APMAEGGGQNHHEVVKFMDVYQRSYCHPIETLVDIFQEYPDEIEYIFKPSCVPLMRCGGCCNDEGLECVPTEESNITMQIMRIKPHQGQHIGEMSFLQHNKCECRPKKDRARQEKKSVRGKGKGQKRKRKKSRYKSWSVCDKPRR
notes: Produced in Sf9 insect cells with a recombinant baculovirus and partially purified on heparin-sepharose; also called r-VEGF
With B1, the binding result is “binds”.

B2: VEGF121 (ligand, human, UniProt P15692-9 27-147, looked up)
chain: APMAEGGGQNHHEVVKFMDVYQRSYCHPIETLVDIFQEYPDEIEYIFKPSCVPLMRCGGCCNDEGLECVPTEESNITMQIMRIKPHQGQHIGEMSFLQHNKCECRPKKDRARQEKCDKPRR
notes: mature; VEGF121 isoform of VEGF-A
For B2, the binding result is “binds”.
